In the RNAGym collection of RNA variant scans (doi:10.1073/pnas.2313332121):

B1: TPR t1 (parent)
chain: GACCAAUCUGCCCUCAGAGCUCGAGAACAUCUUCGGAUGCAGAGGAGGCAGGCUUCGGUGGCGCGAUAGCGCCAACGUCCUCAACCUCCAAUGCAUCCCACCACAUGAUGAUGCCUGAAGAGCCUUGGUUUUUUG

Variants of: B1
Assay: polymerase ribozyme fitness, log enrichment relative to wild type (log ratio); higher = more active; in vitro selection for triplet polymerase activity
Summary of the method: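 Genotype fitness is the logarithm of its enrichment divided by wild-type enrichment, using inverse-variance-weighted averages of replicates. That logarithm is base 2. Enrichment was measured by Illumina sequencing of input and output libraries from one triplicate in vitro selection round, with frozen incubation at −7 °C, on PCR-built, transcribed mutant libraries of each subunit of a heterodimeric triplet polymerase ribozyme, retaining genotypes with ≥10 input reads and ≥1 read per output.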

Row | Variant | polymerase ribozyme fitness (log ratio)
1 | GACCAAUCUGCCCUCAGAGCUCGAGAACAUCUUCGGAUGCAGAGGAGGCAGGCAUCGGUGGCGCGAUAGCGCCAACGUCCUCAACCUCCAAUGCAUCCCACGACAUGAUGAGGCCUGAAGAGCCUUGGUUUUUUG [U54A C102G U112G] | -6.74
2 | GACCAAUCUGCCCUCAGAGCUCGAGAACAUCUUCGGAUGCAGAGGAGGCAGGCUUCGGUGGCGCGAUAGCGCUAACGUCCUCAACCUCCAAUGCAUCCCACCACAUGAUGAUGCCUGAAGAGCCUUGUUUUUUUG [C73U G128U] | -1.62
3 | GGCCAACCUUCCCUCAGAGCUCGAGAACAUCUUCGGAUGCAGAGGAGGCAGCCUUCGGUGGCGCGAUAGCGCCAACGUCCUCAACCUCCAAUGCAUCCCACCACAUGAUGAUGCCUGAAGAGCCUUGGUUUUUUG [A2G U7C G10U G52C] | -1.99
4 | GACCAAUCUGCCCUCAGAGCUCGAGAACAUCUUCGGAUGCAGAGGAGGCAGGCUUCGGUGGCGCGAUAGCACCAACUUCCUCAACCUCCAAUGCAUCCCACCACAUGAUGAUGCCUGAAGAGCCUUGGUUUUUUG [G71A G77U] | -1.13
5 | GACCAAUCUGCUCUCAGAGCUCGAGAACAUCUUCGGAUGCAGAGGAGGCAGGCUUCGGUGGCGCGAUAGUGCCAAGGUCCUCAACCUCCAAUGCAUCCCACCACAUGAUGAUGCCUGAAGAGCCUUGGUUUCUUG [C12U C70U C76G U132C] | -0.684
6 | GACCAAUCUGCCCUCAAAGCUCGAGAACAUCUUCGGAUGCAGAGGAGGCAGGCUUCGGUGGCGCGAUAGCGCCAACGUCCUCAACCUCCAAUGCAUCCCACCACAUGAUGAUGCCUGAAGAGCCUUGGUUUUUUG [G17A] | -2.59
7 | GACCAAUCUGCCCUCAGAGAUCGAGAGCAUCUUCGGAUGGAGAGGAGGCAGGCUCCGGUGGCGCGAUAGCCCCAACGUCCUCAACCUCCAAUGCAUCCCACCACAUGAUGAUACCUGAAGAGCCUUGGUUUUUUG [C20A A27G C40G U55C G71C G113A] | -3.84
8 | GACCAAUCUGCACUCAGAGCUCGAGAACAUCUUCGGCUGCAGAGGAGGCAGGCUUCGGUGGCGCGAUAGCACCAACGUCCUCAACCUCCAAUGCAUCCCACCACAUGGUGAGGCCUGAAGAGCCUUGGUUUUUUG [C12A A37C G71A A108G U112G] | -7.07
9 | GACCAAUCUGCCCUCAGAGCUCGAGAACAUCUUCGGAUGCAGAGGAGGAAGGCUUCGGUGGCGCGAUAGCGCCAACGUCCUCAACCUCCAAUGCAUCCCACCACAUGAUGAUCCCUGAAGAGCCUUGGUUUUUUG [C49A G113C] | -2.05
10 | GACCAAUCUGCCCUUAGAGCUCGAGAACAUCUUCGGAUGCAGAGGAGGCAGGCUUCGGUGGCGCGAUAGUGCCAACGUCCUCAACCUCCAAUGCAUCCCACCACAUGAUGAUGCCUGAAGAGCCUUGGUUUUUUG [C15U C70U] | -1.7
11 | GACCAAUCUGCCCUCAGAGCUCGAGAACAUCUUCGGAUGUAGAGGAGGCAGGCUUCGGUGGCGCGAUAGCGCCAACGUCCUCAAACUCCAAUGCAUCCCACCACAUGAUGAUGCCUGAACAGCCUUGGUUUUUUG [C40U C85A G120C] | -0.223
12 | GCCCCAUCUGCCCUCAGAGCUCGAGAACAUCUUCGGAUGCAGAGGAGGCAGGCUUCGGUGGCGUGAUAGCGCCAACGUCCUCAACCUCCAAUGCAUCCCACCACAUGAUGAUGGCUGAAGAGCAUUGGUUUUUUG [A2C A5C C64U C114G C124A] | -3.6
13 | GACCAAUCUGCCCACAGAGCUCGAGAACAUCUUCGGAUGCAGAGGCGGCAGGCUUCGGUGGCGCGAUAGCGCCAACGUCCCUAACCUCCAAUGCAUCCCACCACAUGAUGAUGCCUGAAGAGCCUUGGUUUUUUG [U14A A46C U81C C82U] | -3.9
14 | GACCCAUCUGCCCCCAGAGCUCGAGAACAUCUUCGGAUGCAGAGGAGGCAGGCUUCGGUUGCGCGAUAGCGCCAACGUCCUCAACCUCCAAUGCAUCCCCCCACAUGAUGAUGCCUGAAGAGCCUUGGUUUUUUU [A5C U14C G60U A100C G135U] | -4.82
15 | GACCAAUCUGCCCUCAGAGCUCGAGAACAUCUUCGGUUGCAGAGGAGGGAGGCUACGGUGGCGCGAUAGCGCCAACGUCCUCAACCUCCAAUGCAUCCCACCAAAUGAUGAUGCCUGAAGAGCCUUGGUUUUUUG [A37U C49G U55A C104A] | -1.38
16 | GACCAAUUUGCCCUCAGAGCUCGAGAACAUCUUCGGAUGAAGAGGAGGCAGGCUUCGGUGGCGCGAUAGCGCCAACGUCCUCAACAUCCAAUGCAUCCCACCACAUGAUGAUGCCUGAAGAGCCUUGGUCUUUUG [C8U C40A C86A U130C] | -2
17 | GAACUAUCUGCCCUCAGAGCUCGAGAACAUCUUCGGAUGCAGAGGAGGCAGGCUUCGGUCGCGCGAUAGCGCCAACGUCCUCAACCUCCAUUGCAUCCCACCACAUGAUGAUGCCUGAAGAGCCUUAGUUUUUUG [C3A A5U G60C A91U G127A] | -2.45
18 | GACCAAUCUGCCGUCAGAGCUCGAGAACAUCUUCGGAUGCAGAGGAGGCAGGCUUCGGUGGCGCGAUAGCGCCAACGUCCUCAACCUCCAAUGCACCCCACCACAUGAUGAUGCCUGAAGAGCCUUGGUUUUUUG [C13G U96C] | -2.28
19 | GACCAAUGUGCCCUCAGCGCUCGAGAACAUCUUCGGAUGCAGAGGAGGCAGGCUUCGGUGGCGCGAUAGCGCCAACGUCCUCAACCUCAAAUGCAUCCCACCACAUGAUGAUGCCUGAAGAGCCUUGGUUUUUUG [C8G A18C C89A] | -0.827
20 | GACCAAUCUGCCCUCAGAGCUCGAGAACACCUUCGGAUGCAGAGGAGGCAGGCUUGGGUGGCGCGAUAGUGCCAACGUACUCAACCUCUAAUGCAUCUCAACACAUGAUCAUGCCUGAAGAGCCUUGGUUUUUUG [U30C C56G C70U C79A C89U C98U C101A G110C] | -6.87
21 | GACCAAUUUGCCCUCAGAGCUCGAGAACGUCUUCGGAUGCAGAGGAGGCAGGCUUCGGUGGCGCGAUAGCGCCAACGUCCUCAACCUCCAAUGAAUCCCACCACAUGAUGAUGCCGGAAGAGCCUUGGUUUUUUG [C8U A29G C94A U116G] | -2.84
